# The nanobody polyreactivity screen of Harvey et al. (2022)
# Assay: yeast display, Sf9 membrane polyspecificity reagent, FACS + sequencing; frameworks hold sequencing errors
# Outline: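 A synthetic nanobody library was expressed on Saccharomyces cerevisiae BJ5465 by galactose induction for 36–48 hours. The library was stained for 1 hour at 4 °C with 10% biotinylated, detergent-solubilized Sf9 membrane reagent and enriched with streptavidin microbeads before FACS. Low and high (top ~1%) gates were set on anti-HA fluorescence for expression and streptavidin fluorescence for reagent binding, and each polyreactivity label reflects the gate of origin.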
row,Sequence,polyreactivity (PSR sort gate)
1,QVQLVESGGGLVQAGGSLRLSCAASVSTFQVYGMGWYREAPGKERELVAAISYSGGRTYYADSVKGRFTISRDNAKNTVYLQMNILKPEDTAVYYCNAVLAHDPRLDYWGQGTQVTVSS,high polyreactivity
2,QVQLVESGGGLVQAGGSLRLSCAASVSTFQYNARGWYRQAPGKEMELVAAITSRGGSTYYADSVKGRFTISRDNAKNTVYLQMNSLKPEDTALYYCAALLSKSGRFDRAKVTAYGYWGQGTQVTVSS,low polyreactivity
3,QVQLVESGGGLVQAGGSLRLSCAASVSTLSDNAMGWYRQAPGKERELVASISWSGGTYYADSVKGRFTISRDNAKNTVYLQMNSLKPEDTAVYYCAAYIYYNYSRQYWYDYWGQGTQVTVSS,low polyreactivity
4,QVQLVESGGGLVQAGGSLRLSCAASWYTMGWYRQAPGKERELVAAITGGGSTNYADSVKGRFTISRDNAKNTVYLQMNSLKPEDTAVYYCAKTRVLLNSYSYNIIYDYWGQGTQVTVSS,low polyreactivity
5,QVQLVESGGGLVQAGGSLRLSCAATGFIFAANAMGWYRQAPGKERELVAAINYRGSSTYYADSVKGRFTISRDNAKNTVYLQMNSLKPEDTAVYYCAARSGAQRGGGYWGQGTQVTVSS,high polyreactivity
6,QVQLVESGGGLVQAGGSLRLSCAATGFIFERNAMGWYRQAPGKERELVAVISYSGGRTYYADSVKGRFTISRDNANNTVYLQMNSLKPEDTAVYYCAATIVKYGYHYDYWGQGTQVTVSS,high polyreactivity
7,QVQLVESGGGLVQAGGSLRLSCAATGFTFFRYAMGWYRQARGKERELVAAITYSGSSTYYADSVKGRFTISRDNAKNTGYLQRNSLKPEDTAVYYCNAVQGFYSWVLYYYAYDYWGQGTQVTVSS,high polyreactivity
8,QVQLVESGGGLVQAGGSLRLSCAATGFTFGSNVMGWYRQAPGKERELVATIRRGGSTNYADSVKGRFTISRDNAKNTVYLQLNSLKPEDTAVYYCATRYREWGQGTQVTVSS,high polyreactivity
9,QVQLVESGGGLVQAGGSLRLSCAATGFTFRFYAIGWYRQAPGKERELVAAISSRGTTTYYADSVKGRFTISRDNAKNTVYLQMNSLKPEDTAVYYCNKEYTTYGYDLEYDYWGQGTQVTVSS,low polyreactivity
10,QVQLVESGGGLVQAGGSLRLSCAATGFTFYKNAMGWYRQAAGKDRELVAAITRGGTTNYADSVMGRFTISRDNAKNTVYLQMNSLKEEDTAVYYCAKQGRYLTRYGYWGQGTQVTVSS,high polyreactivity
11,QVQLVESGGGLVQAGGSLRLSCAATGFTFYVNAMGWYRQAPGKERELVAGITTSDGSTYYADSVKGRFTISRDNAKNTVYLQMNSLKPEDTAVYYCAAAITWYQLYQRSGGDYWGQGTQVTVSS,low polyreactivity
12,QVQLVESGGGLVQAGGSLRLSCAATGIIFHRYVMGWYRQAPGKERELVAVITQRGGSTYYADSVKGRFTISRDNAKNTVYLQMNSLKQEDTAVYYCAARSQYRDRTGQYGYWGQGSQVTVSS,high polyreactivity
13,QVQLVESGGGLVQAGGSLRLSCAATGIIFRDYGKGWYRHAPGKQREFVATITYSGGGTYYADSVKGRFTISRDNAKNTVYLQMNSLKPEDTAVYYCAAYPFYYDLAYDYWGQGTQVTVSS,low polyreactivity
14,QVQLVESGGGLVQAGGSLRLSCAATGIIIDSNAMGWYRQAPGKERELVAAITSGGSTKYADSVKGRFTISRDNAKNTVYLQMNSLKPEDTAVYYCAAGGSYYRDDYWGQGTQVTVSS,low polyreactivity
15,QVQLVESGGGLVQAGGSLRLSCAATGLIFAYNTMGWYRQAPGKERELVAGITSSGSTYYADSVKGRFTISRDNAKNTVYVQMNSLKPEDTAVYYCAAEWDDGRSWYWYYLVGFEYWGQGTQVTVSS,high polyreactivity
16,QVQLVESGGGLVQAGGSLRLSCAATGLTFKENVMGWYRQAPGKERELVAAISTGASTYYADSVNGRFTISRDNAKNTVYLQMNSLKPEDTAVYYCAKRVTPWYGYWGQGTQVTVSS,high polyreactivity
17,QVQLVESGGGLVQAGGSLRLSCAATGRIFPYYAMGWYRQAPGKERALVATISSGGRTNYADSVKGRFTISRDNAKNTVYLQMNSLNPEDTAVYYCAADYRKSRVFYGLYYWGQGTQVTVSS,high polyreactivity
18,QVQLVESGGGLVQAGGSLRLSCAATGRIFRTTAMGWYRQAPGTVRELVAAITFSGGGTYYADSVKGRFTISRDHAKNTGYLQMNSLKPEETAFYYCYADDSYDLSCFEDDYWGQGTQVTVSS,low polyreactivity
19,QVQLVESGGGLVQAGGSLRLSCAATGRIFSLYAMGWYRQAPGKERELVASITRSGVRTYYADSVKGRFTISRDNAKNTVYLQMNSLKPEDTAVYYCAAPYLYSQGTYYRSSGMDYWGQGTQVTVSS,low polyreactivity
20,QVQLVESGGGLVQAGGSLRLSCAATGRIFTINAMGWYRQAPGKERELVAGITKSGGITYYADSVKGRFTISRDNAKNTVYLQMNSLKPEDTAVYYCAAPFNRWRARTGFDYWGQGTQVTVSS,high polyreactivity
21,QVQLVESGGGLVQAGGSLRLSCAATGRIISFYVMGWYRQAPGKERELVAAISLSGGSTYYADSVKGRFTNSRDNAKNTVFLQMNCLKPEDTAVYYCYAVLYARQRERWARYDYWGQGTQVTVSS,high polyreactivity

row,Sequence,polyreactivity (PSR sort gate)
1,QVQLVESGGGLVQAGGSLRLSCAATGRISFRILWDGIDRRLGKKGSWLPLLTNTGSTNYADSVKARFTISRDNAKNTVYLQMNSLKPEDTAVYYCNADPTGGSSYPAYFEYDYWGQGTQGTVSS,low polyreactivity
2,QVQLVESGGGLVQAGGSLRLSCAATGRTFPAYAMGWYRQAPGKERELVAAITINGGSTYYADSVKGRFTISRDNAKNSVYLQMNSLKPEDTAVYYCAAYYASPRHGFWGQGTQVTVSS,low polyreactivity
3,QVQLVESGGGLVQAGGSLRLSCAATGRTFSVYTMGWYRQAPGKERELVASISRSGGRTYYADSVKGRFTISRDNAKNTVYLQMNSLKPEDTAVYYCAARWYSASALKYYYWGQGTQVTVSS,high polyreactivity
4,QVQLVESGGGLVQAGGSLRLSCAATGRTFTGNVMGWYRQAPGKERELVAAISRSGTSTYYADSVKGRFTISRDNAKNTVYLQMNSLKPEDTAVYYCAARRTAGYRSGEYDYWGQGTQVTVSS,high polyreactivity
5,QVQLVESGGGLVQAGGSLRLSCAATGSIFKWYAMGWYRQEPGKERELVSAISKSGGSTYYADSVKGRFTISRDNAKNTVYLQINSLKPEDTAVYYCNAVYIGSRRRYEYDYWGEGTQVTVSS,high polyreactivity
6,QVQLVESGGGLVQAGGSLRLSCAATGSIFNKYAMGWYRQAPGTEREFVAAITQGGGRTYYADSVKGRFTISRDNAKNTVYLQMNSLKPEDTAVYYCAKPAYHSPDYDYWGQGTQVTVSS,high polyreactivity
7,QVQLVESGGGLVQAGGSLRLSCAATGSIFQGNVMGWYRPAPGKERELVAGISSSGGRTYYADSVKGRFTISRDNAKNTVYLQMNSLIPEDTAVYYCNAVPSNRQLDYDYWGQGTLVTVSS,high polyreactivity
8,QVQLVESGGGLVQAGGSLRLSCAATGSIFSLYAMGWYRQSPGKERELVADITYSGGNTYYADSVKGRFTISRDNAKNTVYLHMNSLKPEDTAVYYCNAYYFDYWYWYDYWGQGTQVTVSS,high polyreactivity
9,QVQLVESGGGLVQAGGSLRLSCAATGSIFSRYAMGWYRQAPGKERELVAAISWRGGGTYYADSVKGRFTISRDNAKNTVYLQMNSLKPVDTAVYYCAADDTPDDSDYWGQGTQVTVSS,low polyreactivity
10,QVQLVESGGGLVQAGGSLRLSCAATGSIIPFYAMGWYRQATGKEREFVAAISRTGGNTYYADSVKGLLTISRDNAKNTVYLQMNSLKPEDTAVYFCATKRKWTYLSFDYWGQGTQVTVSS,low polyreactivity
11,QVQLVESGGGLVQAGGSLRLSCAATGSTFDNYAMGWYRQAHGKERELVADITWSGGSTYYADSVKGRFTISRDNAKNTVYLQMNSLKPEDTAVYYCNTAGYYTKYDYWGQGTQVTVSS,low polyreactivity
12,QVQLVESGGGLVQAGGSLRLSCAATGSTFDRNAMVWYRLAPGKERELVAAISWRGGRTYYADSVKGRFTISRDNAKNTVYLQMNSLKPEDTAVYYCSAKGPGIRSVEGYDYWGQGTQVTVSS,low polyreactivity
13,QVQLVESGGGLVQAGGSLRLSCAATGSTFGAYAMGWYRQAPGKERELVAAITRRSGSTYYADSVKGRFTISRDNAKNTVYLQMNSLKPEDTAVYYCAARASTIMGSWGQGTQVTVSS,high polyreactivity
14,QVQLVESGGGLVQAGGSLRLSCAATGSTFHWYAMGWYRQAPGKATELVATITWSGGSTYYADSVKGRFTISRDNAKNTVYLQMNSLKPEDTAVYYCAAETYILLEYDYWGQGTQVTVSS,high polyreactivity
15,QVQLVESGGGLVQAGGSLRLSCAATGSTFKWYAMGWYIQAPGKERELVDSISWTGASTYYADSVKGRFTISRDKAKNTVYLQMNSLKPEDTAVYYCAADRTYYALLWTGRSRYDYWGQGTQVTVSS,high polyreactivity
16,QVQLVESGGGLVQAGGSLRLSCAATGSTFLVNAMGWYRQAPGKERELVAAISRGGSTYADSVKGRFTISRDNAKNTVYLQMYSMNPEDTAVYYCNARRYQSYRYYYWGQGTQVTVSS,high polyreactivity
17,QVQLVESGGGLVQAGGSLRLSCAATGSTFRNNAMGWSRQAPGKERELVAAISRGGGSTYYADSVKGRFTISRDNAKNTVYLQMNSLKPEVTAVYYCARRPTGIYDYWGQGTQVTLSS,high polyreactivity
18,QVQLVESGGGLVQAGGSLRLSCAATGSTFRYYAMGWYRQAPGKERELVAAISASGSSTYYADSVKGRFTISRHNAKNTVFLQMYSLKPEDTAVYYCATRQFYVRLGYYSWGQGTQVTVSS,high polyreactivity
19,QVQLVESGGGLVQAGGSLRLSCAATGSTFTSYAMGWYRQAPGKERELVAVISFSGGSTYYADSVKGRFTISRDNAKNTVYLQMNSLKPEDTAVYYCAARIYKRYYWGQGTQVTVSS,high polyreactivity
20,QVQLVESGGGLVQAGGSLRLSCAATGYTLYYNAMGWYIQAPGKERELVAAITSGGSTSYADSVKGRFTISRDNAKNTVYLQMNRLIPEDTAVYYCAAVFYRRFDYWGQGTQVTVSS,low polyreactivity
